Source: the nanobody polyreactivity screen of Harvey et al. (2022)

experiment: yeast display, Sf9 membrane polyspecificity reagent, FACS + sequencing; frameworks hold sequencing errors
Summary of the method: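 Polyreactivity labels are assigned by the sorting gate from which each nanobody was recovered. The gates were low and high (top ~1%), set on anti-HA fluorescence for expression and streptavidin fluorescence for reagent binding. Before sorting, galactose-induced (36–48 hours) yeast display cells were stained for 1 hour at 4 °C with 10% biotinylated, detergent-solubilized Sf9 membrane reagent.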

Row | Sequence | polyreactivity (PSR sort gate)
1 | QVQLVESGGGLVQAGGSLRLSCAASGFTFGDYAMGWYRQAPGIERELVAAIRSGGSTNYADSVKGRFTISRDNAKNTVYLQMNSLNPEDTAVYYCAAEWPHGQGAWSFFCRDSWGQGTQVTVSS | low polyreactivity
2 | QVQLVESGGVLVQAGGSLRLSCAASGRTYGTYAMGWYRQAPGKERELVAGINGSGGSTYYADSVKGRFTISRDNAKNTVFLQMNSLKPEDTAVYYCYKYGRRPYGLRGYWGEGTQVTVSS | high polyreactivity
3 | QVQLVESVGGLVQAGGSLRLSCASSGFTFRFYVMGWSRQAPGKERELVAAITASGGTTYYADSVKGRFTISRDNAKNTVYLQMNSLKPEDTAVYYCNARYYYLYGYDYWGQGTQVTVSS | high polyreactivity
4 | QVQLVESGGGLVQAGGSLRLSCAASGRTLYRNAMGWYRQSPWKDREFVSRITWSGASTYYADSVKGRFTISRDNAKNTVYLQMNSLKPEDTAVYYCAAQYLSRRYGPYYTYNYWGQGTQVTVSS | high polyreactivity
5 | QVQLVESGGGLVQAGGSLRLSCSASGRIFSGYAMGWYRQAPGKERELVAAITSVGSTNYADSVKGRFTISRDNAKNTVYLQMNSLKTEDTAVYYCAARSQIYYRYRSYGYWGQGTQVTVSS | high polyreactivity
6 | QVQHEESGGGLDQPGGSLRLTCAASGRIFNGYKMGWYRKAPGKETEFVDTISRSGGSTYYADSVKGRFTISRDNAKNSVYLQMNSLKPEDTAVYYCAKSYPDKWEYDYWGQGTQVTVSS | low polyreactivity
7 | QVQLVESGGGLVQAGGSLRLSCAASGSIFVLNAMGWYRQAPGKERELLAGITYSGGSTYYADSVKGRFTISRDNAKNTVYLQMNSLKPEDTAVYYCAAPVRRYPYPGRFYYWGQGTQVTVSS | low polyreactivity
8 | QVQLVESGGGLVQAGGSLRLSCAASGRTLARNAMGWDRQAPGKERELVASINGRTTRTYYADSVKGRFTISRDNAKNTVYLQMNSLKPEDTAVYYCAADPPGYVYGKRYYWGQGTQVTVSS | high polyreactivity
9 | QVQLVESGGGLDQAGGSLRLSCAASGLTSLGNAMGWYRQAPGKERELVAAITRTGTSTYYADSVKGRFTISRDNAKNTVYLQMNSLKPEDTAVYYCNADGQSQYRYGSQYRYDYWGQGTQVTVSS | low polyreactivity
10 | QVQLVESGGGLVQAGGSLRLSCAASGSIFDRNAMGWYRQAPGKERELVATITWSGVSTYYADSVKGRFTISRDNAKNTVYLQMNSLKPEDTAVYYCNADYSYRHWYDPGQYGQAMGYWGLGTQVTVSS | low polyreactivity
11 | QVQLVESGGGLVQAGGSLRLSCAASGRTFGQNAMGWYRQAPGKERELVAAISWRGARTFYADSVKGRFTISRDNAKNTVYLQMNSLKPEDTAVYYCAARYSAYRRNVAYDYWGQGTQVTVSS | high polyreactivity
12 | QVQLVESGGGLVQAGGSLRLSCAASGYFDLNAMGWYRQAPGKERELVAAITDGGSTNYADSVKGRFTISRDNAKNTVYLQMNSLKPEDTAVYYCAADRGHTILHGGYWGQGTQVTVSS | low polyreactivity
13 | QVQLVESGGGLVQAGGSLRLSCAASGIIFRYYAMGWYRQAPGKERELVAGISYRGGSTYYADSVKGRFTISRDNAKNTVYLQMNSLKPEDTAVYYCAAVVYPRNYWGQGTQVTVSS | high polyreactivity
14 | KVQLVESGGGLVHAGGSLRLSCAASGRIIYYYAMGWYRTAPGKERELVAAISGRGTSTYYADSVKGRFTISRDNAKNTVYLKMNSLKPEDTAVYYCAARYYYWGQGTQVTVSS | high polyreactivity
15 | QLQHVESGRGLVQAGGSLRLSCADSGRTYGGYDMGWYRQATVKERELVAAISYSGGSTYYADSVKGRFTISRDNAKNTVYLEMNSLKPEDTAVFYCAADGYDAYYWGQGTQVTVSS | low polyreactivity
16 | QVQLVESGGGLVQAGGSLRLSCAASGRIFYGYTMGWYRQAPGKERELVASIDYSTGRTYYADSVKGRFTISRDNAKNTVYLQMNSLKPEDTAVYYCNADPNYSLLRYDYWGQGTQVTVSS | high polyreactivity
17 | QVQLVESGGGLVQAGGSLRLSCAASGYTLRPNGMGWYRPAPGKERELVAAISSGGSTYYADSVKGRFTISRDNAKNTVYLQMNSLKPEDTAVYYCAAEYWYDYWGQGTQVTVSS | low polyreactivity
18 | QVQLVESGGGLVQAGGSLRLSCAASGSIFYFNAMGWYRQAPGKERELVASITSGGSTNYADSVKGRFTISRDNAKNTVYLQMNSLKPEDTAVYYCNARFPYLSRWLVRGLASYDYWGQGTQVTVSS | low polyreactivity
19 | QVQLLESGGGLVQAGGSLRLSCAASGRIFVYNVMGWSRQAPGKERELVADINGSGGGTIFADSVKGRFTISRDNAKNNVYFQMNSLKPVDTAVYYCNADSYEYHVPYYDYRYDYWGHGTQVTVSS | low polyreactivity
20 | QVQLVESGGGLVQAGGSLRLSCAASGFIFPRYTMGWYRQAPGKERELVASITRGVRTHYADSVKGRFTISRDNAKNTVYLQMNSLKPEDTAVYYCARRNDYVYTRHFDSWGQGTQVTVSS | high polyreactivity
21 | QDQHVESGGGLDQAGGSLRLSCAASGRTIRSYAMGGYRPAPRKESELVAAISSRGGNTYYADSVKGRFTISRDNAKYTVYLQMNSLKPEDTAVYYSNRVRYGVPLIVGDDYWGQGTQVTVSS | high polyreactivity
22 | QVQLVESGGGLVQAGGSLRLSCAASGFIFYDYALGWYRQAPGKERELVAAITQRGGSTYYADSVKGRFPISRDNAKKTVYLQMTSLKPVDTAVYSCAAKDAPYWFPITHVQPVDMDYWGQGTQVTVSS | high polyreactivity

Row | Sequence | polyreactivity (PSR sort gate)
23 | QVQLVESGGGLVQAGGSLRLSCAASGSIFYSYVMGWYRQAPGKERELVAAITTGGSTYYADSVKGRFTISRDNAKNTVYLQMNSLKPEDTAVYYCAAELVGTEYDYWGQGTQVTVSS | low polyreactivity
24 | QVQLVESGGGLVQAGGSLRLSCAASGRTFVYNAMGWYRQAPGKERELVAGITNGGSTNYADSVKGRFTISRDNAKNTVYLQMNSLKPEDTAVYYCAADSRVYPYYFGDFGYWGQGTQVTVSS | low polyreactivity
25 | QVQLVESGGGLVQAGGSLRLSCAASGLTVNRYALGWYRQAPGKERELVASIRWSGGSTYYADSVKGRFTISRDNAKNTVYLQMNSLKPEDTAVYYCAKSIASAAYDSWGQGTQVTVSS | low polyreactivity
26 | QVQLVESGGGLVQAGGSLRLSCAASGSIFGRYAMGWYRQAPGKERELVAAISYSNARTYYADSVKGRFTISRDNAKNTVYLQMNSLKPEDTAVYYCAVLRRYLVGNLVGYNYWGQGTQVTVSS | high polyreactivity
27 | QVQLVESGGGLVQAGGSLRLSCAASGRTFVYNAMGWYRQAPGKERELVAAIDGGGDRTYYADSVKGRFTISRDNAKNTVYLQMNSLKQEDTAVYFCARDPGDTYYYSYPEGDYWGQGTQVTVSS | low polyreactivity
28 | QVQRVESGGGLVQAGGRLRLSSAASGSIFGRYGMGWYRQAPGKDRELVAAITSGTRRNYADSVKGRFTISRDNAKNTVYLQMNSLKPEDTAVYYCNAVRLRGNYEYGYWGLGTQVTVSS | low polyreactivity
29 | QVQLEESGGGLVQAGGRIRLSCAASGRIFHGYAMGWYRQAPGKERELVAAISWRGDSTYYADSVKGRFTNSRDNAKNTVYLQMNSLKPEDTAVYYCNDLGENYQFNYWGLGTQVTVSS | low polyreactivity
30 | QVQLVESGGGLVQAGGSLRLSCAASGSTFRSYVMGWYRQAPGKERELVARITFNGGGTSYADSVKGRFTISRDTAKNTVYLQMNSLKPEDTAVYYCAARGYGWPKLFNYWGQGTQVTVSS | high polyreactivity
31 | QVQLVESGGGLVQAGGSLRLSCAASGRTFTSYAMGWYRQAPGKEREFVAAITTSGGSTYYTDSVKGRFTISRDNAKNTVYLQMNSLKPEDTAVYYCAAYVAYDRSGQYDYWGQGTQVTVSS | high polyreactivity
32 | QVQLVESGGGLDQAGGSLRLSCADSGRTFYIYAMGWYRQAPGKERELVAAITSVGSTNYADSVKGRFTISRDNAKNTVYLQMNSLKPEDTAVYYCAAESTEGTSGDYDYWGQGTQVTVSS | low polyreactivity
33 | QVQLVESGGGLVQAGVSLRLSCAASGSSLARNAMGWYRQAPGKERELVAAISRRSGSTYYADSVKGRFTFSRDNAKNTVYLQMNSLKPEDTAVYYCAKLGIVHQYDYWGQGTQVTVSS | low polyreactivity
34 | QVQLVESGGGLVQAGGSLRLSCAASGSIFTPYAMGWYRQAPGKERELVAAISYSGGSTYYADSVKGRFTISRDNAKNTVYLQMNSLKPEDTAVYYCATDGYVYTPFDDDEDYWGQGTQVTVSS | low polyreactivity
35 | QVQLVESGGGLVQAGGILRLSCAASGLTFYGYAMGWYRQAPGKERELVAAITRGGGSTYYADSVKGRFTISRDNAKNTVYLQMNSLKPDDTAVYYCAADQTGWGDTYYYWGQGTQVTVSS | low polyreactivity
36 | QVQLVESGGGLGQAGGSLRLSCAASGSIFYRNARGWYRQAPGKERELVASITSGGRTNYADSVKGRFTISRDNAKYSVYLQMNSLKPEDTAVFYCARGRASYTTSGPTPYTGYGYWRQGTQVTVSS | low polyreactivity
37 | QVHLVESGGGLVQAGGSLRLSCAASGRILGKYSMGWYRQAPGKERELVAAIRLRGGSTYYADSVKGRFTISRDNAKNTVYLQMNSLKPEDTAVYYCAARYWDRSQAYNYWGQGTQVTVSS | high polyreactivity
38 | QVQLVESGGGLVQAGGSLRLSCAASGSTFGGYAMGRYRQAPGKERELVAAISNGDRTNYADSVKGRFTISRDNAKNTVYLQKNSLKPEETAVYYCATRTLFRYPNYGNNLWGYDYWGQGTQVTVSS | low polyreactivity
39 | QVQLVESGGGLVQAGGSLRLSCAASGFIFYRYAMGWYRQAPGKEREFVAAITRSAGGTYYADSVKGRFTISRDNEKNTVYLQMNSLKPEDTAVYYCAAVYRSGSRYYLGWYNYWGQGTQVTVSS | high polyreactivity
40 | QVQLVESGGGLVQAGGSLRLSCAASGIIFEYYAMVWYRQAPGKDRELVAAISRSSVSTYYADSVKGRFTISRDNAKNTVYLQMNSLKPEDTAVYYCAARQGYGYYKYGKYYYWGQGTQVTVSS | high polyreactivity
41 | QVHLVESGGGLVQAGGSLRLTSAASGRIFGRNAMGWYRQAPGKEREFVAAISRSGASRYYADSVKGRFTISRDNAKNTVYLQMNRLKPEDTAVYYCARTTRQSSAYTYSDEYDYWGQGTQVTVSS | high polyreactivity
42 | QVQLVESGGGLVQAGGSLPLSCAASGRTYRYYAMGWYRQAPGKERELVAAITRRSGNTNYADSVKGRFTISRDNAKNTVYLQINSLKPEDTALYYCAAVGAKGARYDYWGQGTQVTVSS | high polyreactivity
43 | QVQLVESGGGLVQAGGSLRLSCAASGSIFGENAMGWDRQAPGKERELVAAITSGGSTDYADSVKGRFTISRDNAKNTVYLQMNSLKPEDTAVYYCAASGRVGPGYWYDSWGQGTQVTVSS | low polyreactivity
